Measurements reported in patent US10683335B2, “Freeze-dried preparation containing high-purity PTH and method for producing same” (ASAHI KASEI PHARMA CORPORATION, priority 2011, dated 2020).
Values belong to the compound of their own block, whether it stands above or below them.

Experiments:
[1] = Ozone exposure forced degradation of human PTH (1-34) solution (Test Example 2); format: physicochemical; conditions: solution with sucrose and sodium chloride, stirred; ozone approximately 0.08 ppm, about 20 hours
Description: A quantity of 4.00 g of sucrose and 0.20 g of sodium chloride were weighed out and dissolved by adding water for injection to make a placebo solution. […] An environment having an ozone concentration of approximately 0.08 ppm by ozone concentration meter was produced using an ozone generator and a blower (initial wind speed approximately 7.2 m/s) to circulate the ozone and make the concentration uniform in a tray having a 40 cm long×90 cm wide×100 cm high glass door. Approximately 15 mL of the reaction stock solution was dispensed into each 20 mL vial. […] Furthermore, the purity was confirmed in accordance with the test conditions of Test Example 1. The degraded solution was freeze dried, and a solution dissolved by a suitable amount of water for injection was taken as a forced-degradation solution. The analogs were fractionated under the following conditions using this solution.

[2] = HPLC area percentage method: amount of PTH analogs in freeze-dried preparations and bulk drug (Test Example 1); format: physicochemical; conditions: human PTH (1-34) bulk drug lot, HPLC peak area %
Description: The area percentage method using HPLC is a simple method for assessing the purity of a freeze-dried preparation containing PTH peptide and the amount of analogs. A solution obtained by weighing out 0.25 g of benzalkonium chloride and bringing it to 50 mL by adding 50 mM sulfate buffer (pH 2.3) serves as the loading buffer. Each preparation of the examples and comparative examples is dissolved by 1 mL of physiological saline solution, and a 9:1 mixture of this solution and the loading buffer serves as the sample solution. A quantity of 100 μL of sample solution is tested by HPLC under the following conditions. Furthermore, benzalkonium chloride was used to prevent the peptide that is the target of measurement from attaching to the instrument and the like.
Detector: Ultraviolet absorptiometer (measurement wavelength: 214 nm)
Column: Stainless steel tube 150 mm long having an inner diameter of 4.6 mm packed with 3.5 μm of octadecylsilylated silica gel
Column temperature: Constant temperature near 40° C.
Mobile phase: Mobile phase A: Dissolve 28.4 g of anhydrous sodium sulfate in 900 mL of water and bring to 1000 mL by adding water after adding phosphoric acid to adjust the pH to 2.3. Add 100 mL of acetonitrile to this 900 mL of liquid.
Mobile phase B: Dissolve 28.4 g of anhydrous sodium sulfate in 900 mL of water and bring to 1000 mL by adding water after adding phosphoric acid to adjust the pH to 2.3 Add 500 mL of acetonitrile to 500 mL of this liquid.
Mobile phase feed: Concentration gradient control is provided by varying the mixture ratio of mobile phase A and mobile phase B as follows.
Sample temperature: Constant temperature near 5° C.
Detection time: 45 minutes after injection of the sample solution. However, this is from the back of the solvent peak.
Calculation method: The amount of each PTH analog and the total amount thereof was determined by performing liquid chromatography under the above conditions, measuring each peak area by automatic integration, and performing calculation using Formulas 1 and 2. Furthermore, the total peak area was the sum total of the area of all peaks detected by performing liquid chromatography under the above conditions. […] Amount of each PTH analog (%)=(peak area of each analog/total peak area)×100 Formula 1: Total amount of PTH analogs (%)=(sum total of peak areas of each analog/total peak area)×100 Formula 2:

- Purity after exposure to ozone atmosphere [1]: approximately 20%
- Total amount of human PTH (1-34) analogs after exposure to ozone atmosphere [1]: 80%
Compound: CC[C@H](C)[C@H](NC(=O)[C@H](CCC(=O)O)NC(=O)[C@H](CO)NC(=O)[C@@H](NC(=O)[C@@H](N)CO)C(C)C)C(=O)N[C@@H](CCC(N)=O)C(=O)N[C@@H](CC(C)C)C(=O)N[C@@H](CCSC)C(=O)N[C@@H](Cc1cnc[nH]1)C(=O)N[C@@H](CC(N)=O)C(=O)N[C@@H](CC(C)C)C(=O)NCC(=O)N[C@@H](CCCCN)C(=O)N[C@@H](Cc1cnc[nH]1)C(=O)N[C@@H](CC(C)C)C(=O)N[C@@H](CC(N)=O)C(=O)N[C@@H](CO)C(=O)N[C@@H](CCSC)C(=O)N[C@@H](CCC(=O)O)C(=O)N[C@@H](CCCN=C(N)N)C(=O)N[C@H](C(=O)N[C@@H](CCC(=O)O)C(=O)N[C@@H](Cc1c[nH]c2ccccc12)C(=O)N[C@@H](CC(C)C)C(=O)N[C@@H](CCCN=C(N)N)C(=O)N[C@@H](CCCCN)C(=O)N[C@@H](CCCCN)C(=O)N[C@@H](CC(C)C)C(=O)N[C@@H](CCC(N)=O)C(=O)N[C@@H](CC(=O)O)C(=O)N[C@H](C(=O)N[C@@H](Cc1cnc[nH]1)C(=O)N[C@@H](CC(N)=O)C(=O)N[C@@H](Cc1ccccc1)C(=O)O)C(C)C)C(C)C [Human PTH (1-34)]

Compound: human PTH (1-34) [lot A]
- Amount of (6) Human PTH (1-34)-Met 8 [O] ([2]; listed as A): 0.08%

Compound: human PTH (1-34) [lot B]
- Amount of (6) Human PTH (1-34)-Met 8 [O] ([2]; listed as B): 0.07%
- Amount of (7) Human PTH (1-34)-Met 18 [O] ([2]; listed as B): 0.09%

Compound: human PTH (1-34) [lot D]
- Amount of (6) Human PTH (1-34)-Met 8 [O] ([2]; listed as D): 0.05%
- Amount of (7) Human PTH (1-34)-Met 18 [O] ([2]; listed as D): 0.06%

Compound: human PTH (1-34) [lot E]
- Amount of (6) Human PTH (1-34)-Met 8 [O] ([2]; listed as E): 0.05%
- Amount of (7) Human PTH (1-34)-Met 18 [O] ([2]; listed as E): 0.07%

Compound: human PTH (1-34) [lot F]
- Amount of (6) Human PTH (1-34)-Met 8 [O] ([2]; listed as F): 0.14%
- Amount of (7) Human PTH (1-34)-Met 18 [O] ([2]; listed as F): 0.21%

Compound: human PTH (1-34) [lot G]
- Amount of (6) Human PTH (1-34)-Met 8 [O] ([2]; listed as G): 0.17%
- Amount of (7) Human PTH (1-34)-Met 18 [O] ([2]; listed as G): 0.23%

Compound: human PTH (1-34) [lot H]
- Amount of (6) Human PTH (1-34)-Met 8 [O] ([2]; listed as H): 0.06%
- Amount of (7) Human PTH (1-34)-Met 18 [O] ([2]; listed as H): 0.09%
